Patent US20250026797A1 (GOVERNMENT OF THE UNITED STATES OF AMERICA AS REPRESENTED …, published 2025)
*: point of attachment. Biotin = O=C1N[C@H]2[C@H](CS[C@H]2CCCCC(=O)*)N1

Target: T1, wild-type human GID4 fragment (residues 116-300), purified with N-terminal His-tag (human, UniProt Q8IVV7 116-300)
T1 construct: Expressed in E. coli BL21(DE3), nickel-column purified; also called wild-type GID4; native GID4; not shown: N-terminal six-histidine tag and TEV protease recognition site from the pET21(+) construct
T1 sequence: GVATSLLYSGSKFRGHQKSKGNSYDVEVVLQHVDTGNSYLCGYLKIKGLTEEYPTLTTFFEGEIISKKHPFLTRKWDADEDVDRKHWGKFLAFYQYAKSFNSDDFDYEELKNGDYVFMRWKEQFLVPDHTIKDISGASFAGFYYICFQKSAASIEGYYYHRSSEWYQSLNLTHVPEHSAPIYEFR
Test: BLI, biotinylated peptide on streptavidin biosensor, 10 µmol/L protein
Method: High-throughput kinetic measurements were taken using Octet Red96e system with Octet Streptavidin (SA) Biosensors in 96-well format. The highest concentration of protein was prepared by mixing 25% of the total volume with 0.4% BSA in dialysis buffer (1×PBS) and completing subsequent dilutions with 0.1% BSA in dialysis buffer. The SA biosensors were hydrated for 10 min in the dialysis buffer with 0.1% BSA then loaded with NH₂-XXXVKSK(biotin)-COOH (where X are residues specified in the experiment and figures) by moving the sensors into wells with 10 μmol/L of the biotinylated peptide and incubating for 2 min. Unbound peptide was removed by incubating in the dialysis buffer with 0.1% BSA for 2 min in the next wells. The association of GID4 wild-type and variants were then measured by incubating the biosensors in wells with the proteins for 10 min and then dissociation measured by moving the sensors into new wells with dialysis buffer with 0.1% BSA for another 10 min. All wells contained 200 μL of specified solution. The measurements were analyzed with instrument software Data Analysis HT (Version 12).
The association and dissociation of the GID4 wild-type and the six variants to the PGLVKSK(biotin) peptide were evaluated using BLI. BLI is an optical technique that can measure interaction between protein in solution ad peptide immobilized on the biosensor tip. […] The S283F variant has an apparent faster dissociation rate compared to the other singe mutation variants. The apparent faster dissociation rate due to S283F mutation is also present in A252V-S283F mutant, when compared to the A252V-S253T mutant. […] The increase in the BLI response and shift in dissociation rate can be beneficial as an Nt-Pro recognizing protein; differences in off-rate can be used as method to distinguish different Nt-amino acids.

B1: NH2-PGLVKSK(biotin)-COOH peptide (peptide)
peptide: H-PGLVKSK(Biotin)-OH
SMILES: CC(C)C[C@H](NC(=O)CNC(=O)[C@@H]1CCCN1)C(=O)N[C@H](C(=O)N[C@@H](CCCCN)C(=O)N[C@@H](CO)C(=O)N[C@@H](CCCCNC(=O)CCCC[C@@H]1SC[C@@H]2NC(=O)N[C@@H]21)C(=O)O)C(C)C
notes: Immobilised on streptavidin biosensors in BLI; in solution in the yeast display sorts; also called Nt-Pro peptide; target peptide
binding result: binds
